The record followed here is US20160272683A1 (Novo Nordisk, published 2016).

Numbered stars: 1 amine (or outer) side, 2 acyl side, 3 side chain; on linkers, the order of the positions; unused ones are H or OH. * marks the point of attachment. C20 diacid = O=C(O)CCCCCCCCCCCCCCCCCCC(=O)*; C18 diacid = O=C(O)CCCCCCCCCCCCCCCCC(=O)*; γGlu = O=C(O)[C@H](CCC(=O)[*:2])N[*:1]

The chains are these.
T1: human calcitonin receptor (human, UniProt P30988 25-474)
T1 sequence (looked up): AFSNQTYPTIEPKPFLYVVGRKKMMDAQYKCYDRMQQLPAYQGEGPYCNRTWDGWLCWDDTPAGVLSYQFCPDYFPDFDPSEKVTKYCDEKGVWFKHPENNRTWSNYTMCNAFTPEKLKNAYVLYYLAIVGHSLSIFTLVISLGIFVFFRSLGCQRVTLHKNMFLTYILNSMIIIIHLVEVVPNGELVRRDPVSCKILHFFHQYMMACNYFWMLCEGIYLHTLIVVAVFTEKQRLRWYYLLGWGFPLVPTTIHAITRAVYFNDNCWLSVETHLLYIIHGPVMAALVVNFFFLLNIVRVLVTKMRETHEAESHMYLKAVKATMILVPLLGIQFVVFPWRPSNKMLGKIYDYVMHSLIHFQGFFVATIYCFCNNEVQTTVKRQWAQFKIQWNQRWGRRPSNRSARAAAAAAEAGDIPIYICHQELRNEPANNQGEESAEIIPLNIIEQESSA

T2: human amylin 3(a) receptor (human calcitonin receptor co-expressed with RAMP-3) (human, UniProt P30988 25-474; O60896 24-148, limits assumed)
T2 sequence (looked up) 1: T1 sequence (looked up)
T2 sequence (looked up) 2: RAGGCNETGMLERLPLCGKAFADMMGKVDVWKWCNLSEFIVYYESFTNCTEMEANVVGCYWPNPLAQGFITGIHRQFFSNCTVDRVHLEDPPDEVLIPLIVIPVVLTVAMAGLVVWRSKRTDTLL

B1: [N-terminal(C20 diacid-gGlu), des1, 23Y, 30S, 31G, 34K, C-terminal(-)]mimylin (peptide)
peptide: {C20 diacid-γGlu}-ASELSTAALGRLSAELHELATYPRTETGSGSPK-OH
SMILES: CC(C)C[C@H](NC(=O)[C@H](C)NC(=O)[C@H](C)NC(=O)[C@@H](NC(=O)[C@H](CO)NC(=O)[C@H](CC(C)C)NC(=O)[C@H](CCC(=O)O)NC(=O)[C@H](CO)NC(=O)[C@H](C)NC(=O)CC[C@H](NC(=O)CCCCCCCCCCCCCCCCCCC(=O)O)C(=O)O)[C@@H](C)O)C(=O)NCC(=O)N[C@@H](CCCNC(=N)N)C(=O)N[C@@H](CC(C)C)C(=O)N[C@@H](CO)C(=O)N[C@@H](C)C(=O)N[C@@H](CCC(=O)O)C(=O)N[C@@H](CC(C)C)C(=O)N[C@@H](Cc1c[nH]cn1)C(=O)N[C@@H](CCC(=O)O)C(=O)N[C@@H](CC(C)C)C(=O)N[C@@H](C)C(=O)N[C@H](C(=O)N[C@@H](Cc1ccc(O)cc1)C(=O)N1CCC[C@H]1C(=O)N[C@@H](CCCNC(=N)N)C(=O)N[C@H](C(=O)N[C@@H](CCC(=O)O)C(=O)N[C@H](C(=O)NCC(=O)N[C@@H](CO)C(=O)NCC(=O)N[C@@H](CO)C(=O)N1CCC[C@H]1C(=O)N[C@@H](CCCCN)C(=O)O)[C@@H](C)O)[C@@H](C)O)[C@@H](C)O
B2: [N-terminal(C20 diacid-gGlu), des1, 21S, 23Y, 30S, 31G, 33Y]mimylin (peptide)
peptide: {C20 diacid-γGlu}-ASELSTAALGRLSAELHELSTYPRTETGSGSY-NH2
SMILES: CC(C)C[C@H](NC(=O)[C@H](C)NC(=O)[C@H](C)NC(=O)[C@@H](NC(=O)[C@H](CO)NC(=O)[C@H](CC(C)C)NC(=O)[C@H](CCC(=O)O)NC(=O)[C@H](CO)NC(=O)[C@H](C)NC(=O)CC[C@H](NC(=O)CCCCCCCCCCCCCCCCCCC(=O)O)C(=O)O)[C@@H](C)O)C(=O)NCC(=O)N[C@@H](CCCNC(=N)N)C(=O)N[C@@H](CC(C)C)C(=O)N[C@@H](CO)C(=O)N[C@@H](C)C(=O)N[C@@H](CCC(=O)O)C(=O)N[C@@H](CC(C)C)C(=O)N[C@@H](Cc1c[nH]cn1)C(=O)N[C@@H](CCC(=O)O)C(=O)N[C@@H](CC(C)C)C(=O)N[C@@H](CO)C(=O)N[C@H](C(=O)N[C@@H](Cc1ccc(O)cc1)C(=O)N1CCC[C@H]1C(=O)N[C@@H](CCCNC(=N)N)C(=O)N[C@H](C(=O)N[C@@H](CCC(=O)O)C(=O)N[C@H](C(=O)NCC(=O)N[C@@H](CO)C(=O)NCC(=O)N[C@@H](CO)C(=O)N[C@@H](Cc1ccc(O)cc1)C(N)=O)[C@@H](C)O)[C@@H](C)O)[C@@H](C)O
B3: [N-terminal(C20 diacid-gGlu), des1, 9T, 21S, 23Y, 30S, 31G]mimylin (peptide)
peptide: {C20 diacid-γGlu}-ASELSTATLGRLSAELHELSTYPRTETGSGSP-NH2
SMILES: CC(C)C[C@H](NC(=O)[C@H](CCCNC(=N)N)NC(=O)CNC(=O)[C@H](CC(C)C)NC(=O)[C@@H](NC(=O)[C@H](C)NC(=O)[C@@H](NC(=O)[C@H](CO)NC(=O)[C@H](CC(C)C)NC(=O)[C@H](CCC(=O)O)NC(=O)[C@H](CO)NC(=O)[C@H](C)NC(=O)CC[C@H](NC(=O)CCCCCCCCCCCCCCCCCCC(=O)O)C(=O)O)[C@@H](C)O)[C@@H](C)O)C(=O)N[C@@H](CO)C(=O)N[C@@H](C)C(=O)N[C@@H](CCC(=O)O)C(=O)N[C@@H](CC(C)C)C(=O)N[C@@H](Cc1c[nH]cn1)C(=O)N[C@@H](CCC(=O)O)C(=O)N[C@@H](CC(C)C)C(=O)N[C@@H](CO)C(=O)N[C@H](C(=O)N[C@@H](Cc1ccc(O)cc1)C(=O)N1CCC[C@H]1C(=O)N[C@@H](CCCNC(=N)N)C(=O)N[C@H](C(=O)N[C@@H](CCC(=O)O)C(=O)N[C@H](C(=O)NCC(=O)N[C@@H](CO)C(=O)NCC(=O)N[C@@H](CO)C(=O)N1CCC[C@H]1C(N)=O)[C@@H](C)O)[C@@H](C)O)[C@@H](C)O
B4: [N-terminal(C18 diacid), 9V]mimylin (peptide)
peptide: {C18 diacid}-EASELSTAVLGRLSAELHELATLPRTETGPESP-NH2
SMILES: CC(C)C[C@H](NC(=O)[C@H](CCC(=O)O)NC(=O)[C@H](Cc1c[nH]cn1)NC(=O)[C@H](CC(C)C)NC(=O)[C@H](CCC(=O)O)NC(=O)[C@H](C)NC(=O)[C@H](CO)NC(=O)[C@H](CC(C)C)NC(=O)[C@H](CCCNC(=N)N)NC(=O)CNC(=O)[C@H](CC(C)C)NC(=O)[C@@H](NC(=O)[C@H](C)NC(=O)[C@@H](NC(=O)[C@H](CO)NC(=O)[C@H](CC(C)C)NC(=O)[C@H](CCC(=O)O)NC(=O)[C@H](CO)NC(=O)[C@H](C)NC(=O)[C@H](CCC(=O)O)NC(=O)CCCCCCCCCCCCCCCCC(=O)O)[C@@H](C)O)C(C)C)C(=O)N[C@@H](C)C(=O)N[C@H](C(=O)N[C@@H](CC(C)C)C(=O)N1CCC[C@H]1C(=O)N[C@@H](CCCNC(=N)N)C(=O)N[C@H](C(=O)N[C@@H](CCC(=O)O)C(=O)N[C@H](C(=O)NCC(=O)N1CCC[C@H]1C(=O)N[C@@H](CCC(=O)O)C(=O)N[C@@H](CO)C(=O)N1CCC[C@H]1C(N)=O)[C@@H](C)O)[C@@H](C)O)[C@@H](C)O
B5: [N-terminal(C20 diacid-gGlu), des1, 12H, 25H, 30T, 31G, 32T]mimylin (peptide)
peptide: {C20 diacid-γGlu}-ASELSTAALGHLSAELHELATLPHTETGTGTP-NH2
SMILES: CC(C)C[C@H](NC(=O)[C@H](C)NC(=O)[C@H](C)NC(=O)[C@@H](NC(=O)[C@H](CO)NC(=O)[C@H](CC(C)C)NC(=O)[C@H](CCC(=O)O)NC(=O)[C@H](CO)NC(=O)[C@H](C)NC(=O)CC[C@H](NC(=O)CCCCCCCCCCCCCCCCCCC(=O)O)C(=O)O)[C@@H](C)O)C(=O)NCC(=O)N[C@@H](Cc1c[nH]cn1)C(=O)N[C@@H](CC(C)C)C(=O)N[C@@H](CO)C(=O)N[C@@H](C)C(=O)N[C@@H](CCC(=O)O)C(=O)N[C@@H](CC(C)C)C(=O)N[C@@H](Cc1c[nH]cn1)C(=O)N[C@@H](CCC(=O)O)C(=O)N[C@@H](CC(C)C)C(=O)N[C@@H](C)C(=O)N[C@H](C(=O)N[C@@H](CC(C)C)C(=O)N1CCC[C@H]1C(=O)N[C@@H](Cc1c[nH]cn1)C(=O)N[C@H](C(=O)N[C@@H](CCC(=O)O)C(=O)N[C@H](C(=O)NCC(=O)N[C@H](C(=O)NCC(=O)N[C@H](C(=O)N1CCC[C@H]1C(N)=O)[C@@H](C)O)[C@@H](C)O)[C@@H](C)O)[C@@H](C)O)[C@@H](C)O
B6: [N-terminal(C18 diacid-gGlu), des1, 5V, 9V, 10V, 30S, 31G]mimylin (peptide)
peptide: {C18 diacid-γGlu}-ASEVSTAVVGRLSAELHELATLPRTETGSGSP-NH2
SMILES: CC(C)C[C@H](NC(=O)[C@H](CCC(=O)O)NC(=O)[C@H](Cc1c[nH]cn1)NC(=O)[C@H](CC(C)C)NC(=O)[C@H](CCC(=O)O)NC(=O)[C@H](C)NC(=O)[C@H](CO)NC(=O)[C@H](CC(C)C)NC(=O)[C@H](CCCNC(=N)N)NC(=O)CNC(=O)[C@@H](NC(=O)[C@@H](NC(=O)[C@H](C)NC(=O)[C@@H](NC(=O)[C@H](CO)NC(=O)[C@@H](NC(=O)[C@H](CCC(=O)O)NC(=O)[C@H](CO)NC(=O)[C@H](C)NC(=O)CC[C@H](NC(=O)CCCCCCCCCCCCCCCCC(=O)O)C(=O)O)C(C)C)[C@@H](C)O)C(C)C)C(C)C)C(=O)N[C@@H](C)C(=O)N[C@H](C(=O)N[C@@H](CC(C)C)C(=O)N1CCC[C@H]1C(=O)N[C@@H](CCCNC(=N)N)C(=O)N[C@H](C(=O)N[C@@H](CCC(=O)O)C(=O)N[C@H](C(=O)NCC(=O)N[C@@H](CO)C(=O)NCC(=O)N[C@@H](CO)C(=O)N1CCC[C@H]1C(N)=O)[C@@H](C)O)[C@@H](C)O)[C@@H](C)O
B7: [N-terminal(C20 diacid-gGlu), des1, 9S, 23Y, 30S, 31G, 33Y]mimylin (peptide)
peptide: {C20 diacid-γGlu}-ASELSTASLGRLSAELHELATYPRTETGSGSY-NH2
SMILES: CC(C)C[C@H](NC(=O)[C@H](CO)NC(=O)[C@H](C)NC(=O)[C@@H](NC(=O)[C@H](CO)NC(=O)[C@H](CC(C)C)NC(=O)[C@H](CCC(=O)O)NC(=O)[C@H](CO)NC(=O)[C@H](C)NC(=O)CC[C@H](NC(=O)CCCCCCCCCCCCCCCCCCC(=O)O)C(=O)O)[C@@H](C)O)C(=O)NCC(=O)N[C@@H](CCCNC(=N)N)C(=O)N[C@@H](CC(C)C)C(=O)N[C@@H](CO)C(=O)N[C@@H](C)C(=O)N[C@@H](CCC(=O)O)C(=O)N[C@@H](CC(C)C)C(=O)N[C@@H](Cc1c[nH]cn1)C(=O)N[C@@H](CCC(=O)O)C(=O)N[C@@H](CC(C)C)C(=O)N[C@@H](C)C(=O)N[C@H](C(=O)N[C@@H](Cc1ccc(O)cc1)C(=O)N1CCC[C@H]1C(=O)N[C@@H](CCCNC(=N)N)C(=O)N[C@H](C(=O)N[C@@H](CCC(=O)O)C(=O)N[C@H](C(=O)NCC(=O)N[C@@H](CO)C(=O)NCC(=O)N[C@@H](CO)C(=O)N[C@@H](Cc1ccc(O)cc1)C(N)=O)[C@@H](C)O)[C@@H](C)O)[C@@H](C)O

The target in the first experiment is T1, human calcitonin receptor. Put plainly: cell-based or functional assay.
As for B1, the “hCTR funct. EC50 (pM)” value stood at 88 pM.

For {C18 diacid-γGlu}-ASELTTAVLGRLSAELHELATLPRTETGTGTP-NH2 [[N-terminal(C18 diacid-gGlu), des1, 6T, 9V, 30T, 31G, 32T]mimylin], the “hCTR funct. EC50 (pM)” value worked out at 32 pM.

With B2, the “hCTR funct. EC50 (pM)” value amounted to 34 pM.

Consider B3, for which the “hCTR funct. EC50 (pM)” value worked out at 23 pM.

As for B4, the “hCTR funct. EC50 (pM)” value was 9 pM.

In the case of B5, the “hCTR funct. EC50 (pM)” value came to 24 pM.

Regarding B6, the “hCTR funct. EC50 (pM)” value was 8 pM.

For the molecule {C18 diacid-γGlu}-ASELTTAVLGRLSAELHELATLPRTETGSGTP-NH2 [[N-terminal(C18 diacid-gGlu), des1, 6T, 9V, 30S, 31G, 32T]mimylin], the “hCTR funct. EC50 (pM)” value amounted to 30 pM.

Consider B7, for which the “hCTR funct. EC50 (pM)” value came out at 41 pM.

For another experiment, the target named is T2, human amylin 3(a) receptor (human …). Nature of the experiment: cell-based or functional assay.
Turning to B1, the “hAmylin-R funct. EC50 (pM)” value came to 239 pM.

{C18 diacid-γGlu}-ASELTTAVLGRLSAELHELATLPRTETGTGTP-NH2 [[N-terminal(C18 diacid-gGlu), des1, 6T, 9V, 30T, 31G, 32T]mimylin]: the “hAmylin-R funct. EC50 (pM)” value was found to be 65 pM.

On to B2, for which the “hAmylin-R funct. EC50 (pM)” value is 50 pM.

B3: the “hAmylin-R funct. EC50 (pM)” value amounted to 22 pM.

Consider B4, for which the “hAmylin-R funct. EC50 (pM)” value was determined as 12 pM.

Consider B5, for which the “hAmylin-R funct. EC50 (pM)” value stood at 64 pM.

As to B6, the “hAmylin-R funct. EC50 (pM)” value amounted to 11 pM.

Turning to {C18 diacid-γGlu}-ASELTTAVLGRLSAELHELATLPRTETGSGTP-NH2 [[N-terminal(C18 diacid-gGlu), des1, 6T, 9V, 30S, 31G, 32T]mimylin], the “hAmylin-R funct. EC50 (pM)” value is 42 pM.

For B7, the “hAmylin-R funct. EC50 (pM)” value came to 37 pM.
